# Source: patent CN118459575A
# Molecular target: 新型冠状病毒SARS-CoV-2和SARS-CoV以及动物来源的SARS-like冠状病毒S1
# Assay: ELISA, S1 coated at 2 μg/mL, antibody titrated
binder,measurement,value
"广谱抗sarbecovirus和/或新冠突变株的抗体 SCM12-61 (antibody, V domains shown) VH: QVQLVESGGGVVQPGRSLRLSCATSGFTFRSSAMHWVRQAPGKGLEWVAVIWFDGIKKYYTDSVKGRFTISRDNSKNTLYLQMNSLGAEDTAVYYCARDRAREFYPGPHCGDECYSSDAFDVWGQGTTVIVSS VL: DIQMTQSPSSLSASVGDRVTITCRASQDINTYLNWYQQKSGRAPKFLIYAASSLQSGIPSRFSGSGSGTDFTLTIDSLQPEDFATYYCQQSHSIPYTFGQGTKLEIKR",EC50,0.0239 to 0.0405 µg/mL
